From paper PMC8902620, “Oligomerization of DNA replication regulatory protein RADX is essential to maintain replication fork stability” (The Journal of Biological Chemistry, 2022)
Numbering of substitutions follows the chain as printed. Names may count otherwise.

B1: mCherry-FLAG-RADX KIY to DIA (residues 847–849) (natural protein, human, UniProt Q6NSI4 1-855, looked up)
chain: MSGESGQPEAGPSHAGLDWPNPERNRAGVPGGVIRRAGSQGPRSWIQKVLEQIMDSPRQCVTPSEVVPVTVLAVQRYLLEDEPRDTVPKPPLYCYDVTISDGVYQEKCYLDPSLNSLVYQNILKVGIQMRISRVSCLYNEKRIGQGILCIDNVHCGETSDSISLETPFRNRAHQEKPERPLRGGKSHYLALWNNEDPYGDIWLTDKQPEEHNFSDTKIISLSHLEMTWTNRRNFPALLVRILHKSKLRYYGKPDKKMIEPYQTFLEVADSSGTVSVIMWNALCPEWYKSLRVGLVLLLQDYSVKKSYPFRIQPVPVDPQIKLISTMEICLNLRDPPTNIIIIPEKQVKPEWRLPKLNHRFTTRSELDDMPENCICDVIGLLVFVGRVQRSKKKENREDFWSYRWIHIADGTSEQPFIVELFSTSQPEIFENIYPMAYFVCTQLKVVRNDNQVPKLLYLTTTNESGVFITGHRGQPYTYDAKVKNFIQWIRTKSDSGEQKNMVIGGYYPYPPVPETFSKYSSSIKVESLLTAISEVRKEIEDLQYREQKRIAIQGIITAIKYIPHSSATESASASETLRNANRPSTSQAARVEIQERNGKRHQDDEPVNSQYFQTTSTNLSLSNKIRILQGPHANPVAVPQPGASVQTKGIKPGMPSIFNRRANINANLQGKARKTISDRWESQLWREKKFGLIDHLHYSRVYPESIPRKFMFEHRKFLSDQYNSQPAKYVPPEGRPPKLDDFKSARSLGHFEVTILGLNHEIAIDVAFLPMYCPEDIRTSQIDTLLTSMNYSCAYPQDTTGNDRLPGPRAVAGDIIKAATELDRVHIVGILDICNLGNNKVEVYLHDIASPENTS
notes: also called pTM114; source: HEK293T, purified (anti-FLAG M2 beads, 3x FLAG peptide, Superdex 200)
B2: mCherry-FLAG-RADX Y849A (natural protein, human, UniProt Q6NSI4 1-855, looked up)
chain: B1 chain with D847K
notes: RADX, human, full length with one point mutation; also called pTM158; source: HEK293T, purified (anti-FLAG M2 beads, 3x FLAG peptide, Superdex 200)
B3: mCherry-FLAG-RADX E842K (natural protein, human, UniProt Q6NSI4 1-855, looked up)
chain: B1 chain with E842K, D847K, A849Y
notes: RADX, human, full length with one point mutation; also called E842K RADX; pTM156; source: HEK293T, purified (anti-FLAG M2 beads, 3x FLAG peptide, Superdex 200)
B4: mCherry-FLAG-RADX K840D (natural protein, human, UniProt Q6NSI4 1-855, looked up)
chain: B1 chain with K840D, D847K, A849Y
notes: RADX, human, full length with one point mutation; also called pTM155; source: HEK293T, purified (anti-FLAG M2 beads, 3x FLAG peptide, Superdex 200)
B5: mCherry-FLAG-RADX K847D (natural protein, human, UniProt Q6NSI4 1-855, looked up)
chain: B1 chain with A849Y
notes: RADX, human, full length with one point mutation; also called K847D RADX; pTM157; source: HEK293T, purified (anti-FLAG M2 beads, 3x FLAG peptide, Superdex 200)
B6: mCherry-FLAG-RADX NHEI to AAAA (residues 759–762) (natural protein, human, UniProt Q6NSI4 1-855, looked up)
chain: B1 chain with N759A, H760A, E761A, I762A, D847K, A849Y
notes: also called pTM109; source: HEK293T, purified (anti-FLAG M2 beads, 3x FLAG peptide, Superdex 200)
B7: mCherry-FLAG-RADX KVEV to DVKV (residues 840–843) (natural protein, human, UniProt Q6NSI4 1-855, looked up)
chain: B1 chain with K840D, E842K, D847K, A849Y
notes: The results print residues 840 to 844, the methods 840–843; also called pTM113; source: HEK293T, purified (anti-FLAG M2 beads, 3x FLAG peptide, Superdex 200)
B8: mCherry-FLAG-RADX N-terminal fragment (2–675) (domain or fragment, human, UniProt Q6NSI4 2-675, looked up)
chain: SGESGQPEAGPSHAGLDWPNPERNRAGVPGGVIRRAGSQGPRSWIQKVLEQIMDSPRQCVTPSEVVPVTVLAVQRYLLEDEPRDTVPKPPLYCYDVTISDGVYQEKCYLDPSLNSLVYQNILKVGIQMRISRVSCLYNEKRIGQGILCIDNVHCGETSDSISLETPFRNRAHQEKPERPLRGGKSHYLALWNNEDPYGDIWLTDKQPEEHNFSDTKIISLSHLEMTWTNRRNFPALLVRILHKSKLRYYGKPDKKMIEPYQTFLEVADSSGTVSVIMWNALCPEWYKSLRVGLVLLLQDYSVKKSYPFRIQPVPVDPQIKLISTMEICLNLRDPPTNIIIIPEKQVKPEWRLPKLNHRFTTRSELDDMPENCICDVIGLLVFVGRVQRSKKKENREDFWSYRWIHIADGTSEQPFIVELFSTSQPEIFENIYPMAYFVCTQLKVVRNDNQVPKLLYLTTTNESGVFITGHRGQPYTYDAKVKNFIQWIRTKSDSGEQKNMVIGGYYPYPPVPETFSKYSSSIKVESLLTAISEVRKEIEDLQYREQKRIAIQGIITAIKYIPHSSATESASASETLRNANRPSTSQAARVEIQERNGKRHQDDEPVNSQYFQTTSTNLSLSNKIRILQGPHANPVAVPQPGASVQTKGIKPGMPSIFNRRANINANLQGKARKT
notes: also called pTM59; source: HEK293T, purified (anti-FLAG M2 beads, 3x FLAG peptide, Superdex 200)
B9: mCherry-FLAG-RADX C-terminal fragment (675–855) (domain or fragment, human, UniProt Q6NSI4 675-855, looked up)
chain: TISDRWESQLWREKKFGLIDHLHYSRVYPESIPRKFMFEHRKFLSDQYNSQPAKYVPPEGRPPKLDDFKSARSLGHFEVTILGLNHEIAIDVAFLPMYCPEDIRTSQIDTLLTSMNYSCAYPQDTTGNDRLPGPRAVAGDIIKAATELDRVHIVGILDICNLGNNKVEVYLHKIYSPENTS
notes: also called pTM67; source: HEK293T, purified (anti-FLAG M2 beads, 3x FLAG peptide, Superdex 200)
B10: mCherry-FLAG-RADX domain 5 (744–855) (domain or fragment, human, UniProt Q6NSI4 744-855, looked up)
chain: SARSLGHFEVTILGLNHEIAIDVAFLPMYCPEDIRTSQIDTLLTSMNYSCAYPQDTTGNDRLPGPRAVAGDIIKAATELDRVHIVGILDICNLGNNKVEVYLHKIYSPENTS
notes: also called pTM44; source: HEK293T, purified (anti-FLAG M2 beads, 3x FLAG peptide, Superdex 200)
B11: MBP-RADX (maltose-binding protein-tagged RADX) (natural protein, human, UniProt Q6NSI4 1-855, looked up)
chain: B1 chain with D847K, A849Y
notes: RADX (cxorf57), human; also called MBP-tagged RADX; cxorf57; source: insect cells, purified

These binders were tested against T1, full-length RADX, wild type, tagged with mCherry-FLAG or with GFP-HA (human, UniProt Q6NSI4 1-855) (assay: co-IP; purified mCherry-FLAG proteins mixed with purified GFP-HA-RADX and captured on GFP-trap magnetic agarose beads, 1 h at 4 °C; 50 mM Tris pH 7.5, 250 mM NaCl, 10% glycerol, 0.05% NP-40; immunoblot). Conditions: both partners purified.
T1 construct: RADX (cxorf57), human, full length; Two differently tagged copies of the same protein, written as one molecule; The GFP-HA copy is the one captured on GFP beads in the tests with purified proteins; The mCherry-FLAG copy is the one fished out there, and is the bait of the FLAG co-IP from lysate; also called mCherry-FLAG-RADX; m-Cherry-FLAG-RADX; source: HEK293T, transfected, in lysate; HEK293T, …

binding result	Binder
binds	B1
binds	B2
binds	B3
binds	B4
binds	B5
binds	B6
binds	B7
binds	B8
binds	B9
binds	B10

Biological target: the molecule itself
Assay: SEC; purified MBP-RADX on Superdex 200 Increase 10/300 GL; peak fractions pooled and reapplied; 50 mM Tris pH 7.5, 300 mM NaCl, 10% glycerol, 1 mM DTT; size by molecular weight standards
Conditions: not given

Binder	stoichiometry N
B11	~2
